{"source": "patent US20020086396A1", "about": "(Human Genome Sciences, published 2002)", "binders": {"B1": {"name": "35S-labelled TFIIA αβ (large subunit of human TFIIA) (other, UniProt P52655 1-376, looked up)", "chain": "MANSANTNTVPKLYRSVIEDVINDVRDIFLDDGVDEQVLMELKTLWENKLMQSRAVDGFHSEEQQLLLQVQQQHQPQQQQHHHHHHHQQAQPQQTVPQQAQTQQVLIPASQQATAPQVIVPDSKLIQHMNASNMSAAATAATLALPAGVTPVQQILTNSGQLLQVVRAANGAQYIFQPQQSVVLQQQVIPQMQPGGVQAPVIQQVLAPLPGGISPQTGVIIQPQQILFTGNKTQVIPTTVAAPTPAQAQITATGQQQPQAQPAQTQAPLVLQVDGTGDTSSEEDEDEEEDYDDDEEEDKEKDGAEDGQVEEEPLNSEDDVSDEEGQELFDTENVVVCQYDKIHRSKNKWKFHLKDGIMNLNGRDYIFSKAIGDAEW", "modifications": "35S label", "notes": "Made in reticulocyte lysate as 35S-labelled protein; also called αβ subunit; radiolabelled αβ"}}, "biological_target": "T1, GST-αβ fusion protein (human, UniProt P52655 1-376)", "T1 construct": "Bacterially expressed and fixed to glutathione sepharose beads; not shown: glutathione-S-transferase (GST), fusion partner", "T1 sequence (looked up)": "B1 chain", "test": "GST pull-down, 35S-labelled protein on glutathione sepharose beads, autoradiography", "description": "Bacterial extracts of GST or GST fusion proteins were incubated with glutathione sepharose-4B beads (6-9 μg of GST-fusion protein/20 μl of beads) with shaking at […]. After 2 hours the beads were washed with 50 column volumes of cold buffer A (20 mM NaH₂PO₄ (pH 7.0) 150 mM NaCl, 1 mM DTT, 1 mM PMSF). Washed beads (20 μl) were then incubated with reticulocyte lysates containing 2×10⁴ cpm of ³⁵S labelled protein in 300 μl of protein binding buffer (PBB) for 1 hour at room temperature. PBB contained 20 mM Hepes (pH 7.9), 20% glycerol, 0.5 mM EDTA, 60 mM KCl, 5 mM MgCl2, 0.1% NP40, and 5 mM β-mercaptoethanol. The beads were subsequently washed 4 times in PBB and labeled proteins were eluted with 1M KCl. Samples were analyzed on 15% SDS polyacrylamide gels, enhanced with NaSalycilate, and visualized by autoradiography.", "data": [{"binder": "B1", "values": [{"measurement": "binding result", "result": "no binding"}]}]}
